Test results from PMC7857403.

Target: SARS-CoV-2 spike ectodomain trimer (SARS-CoV-2) (UniProt P0DTC2)
Experiment: cryo-EM structure

Row | Substance | stoichiometry N (minibinders per spike trimer)
1 | LCB1 (designed binder) | 3
2 | LCB3 (designed binder) | 3
